{"source": "patent US8440629B2", "about": "“Cyclic receptor-associated protein (RAP) peptides” (Raptor Pharmaceuticals Inc., priority 2007, dated 2013)", "molecules": {"B1": {"name": "MegaRAP1 d3 T213S: MegaRAP1 d3 revertant T213S (protein)", "chain": "LDRLRRVSHQGYSTEAKFEEPRVIDLWDLAQSANLTDKELEAFREELKYFKAKIEAHNHYQKQLEIAHEELRHAESVGDGERVSRSREKHALLEGRTKELGYTVKKHLQDLSGRISRAR"}, "B2": {"name": "MegaRAP1 d3 K217E: MegaRAP1 d3 revertant K217E (protein)", "chain": "B1 chain with S13T, K17E"}, "B3": {"name": "MegaRAP1 d3 A256K: MegaRAP1 d3 revertant A256K (protein)", "chain": "B1 chain with S13T, A56K"}, "B4": {"name": "MegaRAP1 d3 K251E: MegaRAP1 d3 revertant K251E (protein)", "chain": "B1 chain with S13T, K51E"}, "B5": {"name": "MegaRAP1 d3 Y249H: MegaRAP1 d3 revertant Y249H (protein)", "chain": "B1 chain with S13T, Y49H"}, "B6": {"name": "RAP d3 K270E: RAP d3 forward mutant K270E (protein)", "chain": "B1 chain with K17E, Y49H, K51E, A56K"}, "B7": {"name": "mRAPcko: mRAPc with the mutations K256A and K270E (peptide)", "peptide": "GGSGGCGFREELKHFEAKIEAHNHYQKQLEIAHEELRHAESVGDGERVSRSREKHALLEGRTKELGYTVKKHLQDLSGGC", "modifications": "N-terminal biotin; intramolecular disulfide bond between C241 and C315 (otherwise identical to mRAPc)", "notes": "mRAPc with the mutations K256A and K270E"}, "B8": {"name": "mRAP: linearized control of mRAPc, both cysteines substituted with serines (SEQ ID NO: 107) (peptide)", "chain": "SGFREELKHFEAKIEKHNHYQKQLEIAHEKLRHAESVGDGERVSRSREKHALLEGRTKELGYTVKKHLQDLSGGS"}, "B9": {"name": "Heptide: cyclic RAP peptide, amino acids 246 to 313, E246C, L247G, G280A, L311A, S312C (SEQ ID NO: 103) (protein)", "chain": "CGKHFEAKIEKHNHYQKQLEIAHEKLRHAESVGDAERVSRSREKHALLEGRTKELGYTVKKHLQDACG", "modifications": "chains of the parent or of the whole protein"}, "B10": {"name": "mRAp-8c: cyclic RAP peptide, amino acids 246 to 312, E246C, L247G, L311G, S312C (SEQ ID NO: 100) (protein)", "chain": "CGKHFEAKIEKHNHYQKQLEIAHEKLRHAESVGDGERVSRSREKHALLEGRTKELGYTVKKHLQDGC", "modifications": "chains of the parent or of the whole protein"}}, "note": "Changes are numbered by the printed parent chain. In names and notes the source's numbering stands.", "data": [{"target": "T1, LRP2 CR89 (Homo sapiens, UniProt P98164)", "T1 construct": "two CR pairs from LRP2 (CR89, CR3435); made in house; host or cells: E. coli BL21(DE3) CodonPlus-RIPL, pET30(+)a", "T1 sequence (P98164 1022-1105 limits assumed)": "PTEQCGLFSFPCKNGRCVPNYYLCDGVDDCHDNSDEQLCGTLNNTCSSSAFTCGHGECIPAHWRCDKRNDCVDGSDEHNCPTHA", "experiment": "Solid phase binding assay", "conditions": "solid-phase assay", "protocol": "(§1) All expression constructs were sequenced to verify insert sequences and the junctions with the expression vector. Each plasmid was then used to transform BL21(DE3) CodonPlus-RIPL™ cells (Stratagene). Expression of the CR proteins was induced in logarithmic growth-phase cells grown in LB supplemented with 34 μg/mL chloramphenicol, 12.5 μg/mL tetracycline and 15 μg/mL kanamycin by addition of 2 mM IPTG, followed by reduction in incubator temperature to 32° C. and incubation for 4 hours with agitation at […]. Cells were pelleted and resuspended, at 3.5% of the initial culture volume in 10 mM Tris-HCl pH 8, 100 mM NaH2PO4, 8M Urea. Resuspended cells were then frozen in liquid nitrogen, rapidly thawed to 37° C. and sonicated for 10 seconds at an amplitude setting of 60 using a Cole-Parmer CP-130 ultrasonic processor connected to a 3 mm probe. This procedure was repeated three times to effect complete lysis of the cells. Lysates were clarified by spinning twice at 10,000×g in a Sorvall RC-5 centrifuge for 20 minutes at 15° C. Ni-NTA columns (Qiagen Superflow™, 1.5 mL packed bed) were used to purify the CR proteins. Briefly, the resin was equilibrated with two column volumes of lysis buffer. The clarified lysate was then supplemented to 20 mM with imidazole and incubated with the equilibrated Ni-NTA resin overnight at 4° C. The flow-through was discarded. Columns were washed once with one column volume of lysis buffer and then three times with one column volume of TBS pH 8 supplemented with 20 mM imidazole. CR-loaded beads were then removed from the column and CR proteins eluted by incubating at room temperature for 30 minutes with one column volume of the same buffer containing 200 mM imidazole. This step was repeated once and the eluates pooled. Eluted CR protein solutions were then supplemented to 2 M urea, 10 mM CaCl2 and 5 mM DTT. Purified, denatured CR protein solutions were transferred to 3,500 MWCO Slide-A-Lyzer™ (Pierce) cassettes and sequentially dialyzed against a 200-fold excess of 50 mM Tris-HCl pH 8.5, 10 mM CaCl2, 1 mM reduced glutathione, 0.5 mM oxidized glutathione at room temperature overnight and then against TBS supplemented with 5 mM CaCl2 at 4° C. overnight. Protein concentrations were determined by Bradford assay and purity confirmed by SDS-PAGE with Coomassie Brilliant Blue staining.\n(§2) Purified, refolded CR protein (1 μg) was bound to Nunc Maxisorp™ 96-well plates in TBS pH 8 supplemented with 5 mM CaCl2 (TBSC) overnight at 4° C. Wells were washed with TBSC and then blocked with TBSC containing 2% bovine serum albumin (BSA). RAP ligands were then incubated with the immobilized receptor at a range of concentrations for 2 hours in the above blocking buffer supplemented with 0.05% Tween-20 at room temperature. Control wells contained no added ligand. As an additional control, to determine whether the absence of calcium affected binding, 10 mM EGTA was included in the incubation medium for some samples. Wells were washed with TBSTC and bound ligands detected with polyclonal anti-RAP (BP41/42, 1:1,000, BioMarin). Excess primary antibody was removed and wells washed before incubation with the secondary antibody, HRP-conjugated goat anti rabbit IgG (Bio-Rad). After washing, TMB substrate solutions (Bio-Rad) were added to detect HRP. Color development was stopped with 1N HCl. Absorption at 450 nm was measured with a microplate spectrophotometer (Molecular Devices). Data were plotted and Kd values derived by non-linear regression with the assumption of single-site binding (GraphPad Prism).", "values": [{"molecule": "B1", "binding to LRP2 CR89 (in words)": "slightly improved affinities"}, {"molecule": "B2", "binding to LRP2 CR89 (in words)": "slightly improved affinities"}, {"molecule": "B3", "binding to LRP2 CR89 (in words)": "failed to bind"}, {"molecule": "B4", "binding to LRP2 CR89 (in words)": "failed to bind"}, {"molecule": "B5", "binding to LRP2 CR89 (in words)": "failed to bind"}]}, {"target": "T2, LRP1 CR3-5 (Homo sapiens, UniProt Q07954)", "T2 construct": "made in house; host or cells: E. coli BL21(DE3) CodonPlus-RIPL, pET30(+)a", "experiment": "Solid phase binding assay", "conditions": "solid-phase assay", "protocol": "as §1, §2\nFrom the large number of CR pairs with unique combinations of amino acids at A, C, A′ and C′ within the calcium-binding loop of each CR, CR pairs or triplets were selected to test their binding to RAP d3 (FIG. 2). An additional pair derived from the FDC-8D6 protein was tested, designated 8D6 CR12, having the sequence ([…]) (SEQ ID NO: 91). […]", "values": [{"molecule": "B1", "binding to LRP1 CR3-5 (in words)": "unable to detectably bind"}, {"molecule": "B6", "binding to LRP1 CR3-5 (in words)": "failed to measurably bind"}, {"molecule": "B2", "binding to LRP1 CR3-5 (in words)": "unable to detectably bind"}, {"molecule": "B3", "binding to LRP1 CR3-5 (in words)": "failed to bind"}, {"molecule": "B4", "binding to LRP1 CR3-5 (in words)": "failed to bind"}, {"molecule": "B5", "binding to LRP1 CR3-5 (in words)": "failed to bind"}]}, {"target": "T3, rhLRP1 cluster II (Homo sapiens, UniProt Q07954)", "T3 construct": "rhLRP1 cluster II (aa 786-1165, C-terminal Fc, 1 μg); purchased R&D Systems; host or cells: NS0", "T3 sequence (Q07954 786-1165)": "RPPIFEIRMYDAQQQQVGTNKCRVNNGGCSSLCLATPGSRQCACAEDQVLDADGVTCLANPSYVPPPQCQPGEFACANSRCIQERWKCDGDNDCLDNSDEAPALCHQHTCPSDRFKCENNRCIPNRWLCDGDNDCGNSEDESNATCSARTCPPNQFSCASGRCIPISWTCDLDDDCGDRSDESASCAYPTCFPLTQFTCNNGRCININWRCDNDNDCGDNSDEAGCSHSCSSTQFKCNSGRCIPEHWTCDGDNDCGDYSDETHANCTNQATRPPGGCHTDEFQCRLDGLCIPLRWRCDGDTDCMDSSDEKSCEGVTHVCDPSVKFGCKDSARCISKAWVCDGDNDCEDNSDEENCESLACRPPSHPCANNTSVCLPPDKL", "experiment": "Solid phase binding assay of RAP peptides", "conditions": "not given", "protocol": "(§3) Solid phase binding assays were carried out as follows. Recombinant murine VLDLR ectodomain (aa 1-798, C-terminal hexahistidine, 1 μg) or rhLRP1 cluster II (aa 786-1165, C-terminal Fc, 1 μg) were bound to Nunc Maxisorp™ 96-well plates in TBS pH 8 supplemented with 5 mM CaCl2 (TBSC) overnight at 4° C. Wells were washed with TBSC and then blocked with TBSC containing 2% BSA. Peptides were then incubated with the immobilized receptor at a range of concentrations for 2 hours in the above blocking buffer supplemented with 0.05% Tween-20 at room temperature. Identical binding reactions were done in the presence of 50 mM EDTA to provide a measure of non-specific binding. Control wells contained no added peptide. Additional controls established absence of cross-reactivity between antibodies and receptors. Wells were washed with TBSTC and bound peptides detected with streptavidin-HRP (Pierce) or polyclonal anti-RAP (1:1,000, Raptor Pharmaceutical). Binding of the anti-RAP polyclonal antibody to test peptides was qualitatively confirmed by Western blotting (data not shown). Excess streptavidin-HRP or primary antibody was removed and wells washed before incubation with the secondary antibody, when necessary, HRP-conjugated goat anti rabbit IgG (Bio-Rad). Color was developed using TMB reagents (BioRad). Absorption at 450 nm was measured with a microplate spectrophotometer (Molecular Devices). Absorption obtained in the presence of EDTA was subtracted from absorption obtained in the presence of calcium prior to analysis. Data were plotted and Kd values derived by non-linear regression with the assumption of single-site binding (GraphPad Prism).\n(§4) The binding affinity of the peptides for LRP1 and VLDLR, another receptor in the LDLR family, was measured as follows. NS0-expressed and purified hrLRP1 or mVLDLR (R&D Systems) were use to coat wells in 96-well plates. Various dilutions of the test peptides were incubated with the immobilized receptors in the presence and absence of 50 mM EDTA in triplicate. Bound peptides were detected with streptavidin-HRP after extensive washing. Binding values measured in the presence of EDTA were subtracted from values measured in the absence of EDTA in order to determine calcium-dependent binding levels. Corrected values were plotted and fitted by non-linear regression with the assumption of a single-binding site using GraphPad Prism.", "values": [{"molecule": "B7", "affinity (in words)": "no measurable affinity"}, {"molecule": "B8", "affinity (in words)": "no measurable affinity"}]}, {"target": "T3, rhLRP1 cluster II", "experiment": "Solid phase binding assay of RAP peptides", "conditions": "calcium-dependent binding, EDTA-subtracted; read-out: Kd / binding affinity", "protocol": "as §3, §4", "units": {"Kd": "nM"}, "values": [{"molecule": "B9", "Kd": "~3.5"}, {"molecule": "B10", "Kd": "4 to 6"}]}]}
